Data published in patent US20180244785A1 (MERRIMACK PHARMACEUTICALS, published 2018).
Where “and” joins values, the source holds several entries; their conditions need not be identical. Equal values may be shown once.

T1: 6His-Fc-FGFR4 (human, UniProt P22455 144-369)
T1 construct: not shown: 6His tag and Fc as named in '6His-Fc-FGFR'
T1 sequence: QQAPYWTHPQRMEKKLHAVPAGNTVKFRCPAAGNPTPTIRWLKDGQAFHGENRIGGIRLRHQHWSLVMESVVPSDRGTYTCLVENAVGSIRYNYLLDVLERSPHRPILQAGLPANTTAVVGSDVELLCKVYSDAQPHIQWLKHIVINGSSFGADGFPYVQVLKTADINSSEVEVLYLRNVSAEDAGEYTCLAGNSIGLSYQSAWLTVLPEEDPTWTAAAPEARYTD

T2: recombinant human FGFR3c Fc fusion (human, UniProt P22607 141-372)
T2 construct: also called FGFR3IIIc; not shown: Fc part of the FGFR-Fc fusion
T2 sequence: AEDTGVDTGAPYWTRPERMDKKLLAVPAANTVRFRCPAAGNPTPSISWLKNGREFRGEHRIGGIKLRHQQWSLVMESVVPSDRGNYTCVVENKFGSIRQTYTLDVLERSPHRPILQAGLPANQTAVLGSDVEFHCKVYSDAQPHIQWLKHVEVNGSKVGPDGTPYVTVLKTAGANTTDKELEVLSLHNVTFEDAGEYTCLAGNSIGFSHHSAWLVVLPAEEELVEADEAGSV

T3: recombinant human FGFR4 Fc fusion (human, UniProt P22455 144-369)
T3 construct: 19 used; also called FGFR4c; not shown: Fc part of the FGFR-Fc fusion
T3 sequence: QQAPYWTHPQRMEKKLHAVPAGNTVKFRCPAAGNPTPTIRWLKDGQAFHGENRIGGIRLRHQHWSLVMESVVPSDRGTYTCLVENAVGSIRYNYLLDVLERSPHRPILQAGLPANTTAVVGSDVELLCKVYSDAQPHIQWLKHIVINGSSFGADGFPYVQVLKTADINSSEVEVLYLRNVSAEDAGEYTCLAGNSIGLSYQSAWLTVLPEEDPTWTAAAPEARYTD

T4: recombinant human FGFR1c Fc fusion (human, UniProt P11362 141-376)
T4 construct: also called FGFR1IIIc; not shown: Fc part of the FGFR-Fc fusion
T4 sequence: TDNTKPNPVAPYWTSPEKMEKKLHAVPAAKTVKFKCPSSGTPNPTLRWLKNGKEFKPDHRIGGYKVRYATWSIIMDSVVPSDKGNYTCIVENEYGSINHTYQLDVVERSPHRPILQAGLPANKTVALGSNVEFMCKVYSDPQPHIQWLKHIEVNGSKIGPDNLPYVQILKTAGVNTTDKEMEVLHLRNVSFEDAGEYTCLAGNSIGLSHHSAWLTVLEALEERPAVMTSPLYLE

T5: 6His-Fc-FGFR1c (human, UniProt P11362 141-376)
T5 construct: not shown: 6His tag and Fc as named in '6His-Fc-FGFR'
T5 sequence: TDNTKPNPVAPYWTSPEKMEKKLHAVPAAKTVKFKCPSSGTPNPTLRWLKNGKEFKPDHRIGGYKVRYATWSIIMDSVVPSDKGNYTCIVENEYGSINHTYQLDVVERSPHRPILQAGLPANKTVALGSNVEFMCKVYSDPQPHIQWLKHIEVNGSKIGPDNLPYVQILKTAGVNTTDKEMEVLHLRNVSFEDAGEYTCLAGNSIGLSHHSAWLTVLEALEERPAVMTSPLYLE

T6: soluble FGFR1c receptor protein (human, UniProt P11362 141-376)
T6 sequence: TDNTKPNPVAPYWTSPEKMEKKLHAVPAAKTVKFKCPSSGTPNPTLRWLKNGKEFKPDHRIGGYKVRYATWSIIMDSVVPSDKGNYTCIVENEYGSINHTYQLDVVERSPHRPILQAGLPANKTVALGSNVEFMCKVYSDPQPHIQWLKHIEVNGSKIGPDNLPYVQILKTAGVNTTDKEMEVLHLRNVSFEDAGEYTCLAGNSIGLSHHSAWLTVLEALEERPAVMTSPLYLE

T7: soluble FGFR4 receptor protein (human, UniProt P22455 144-369)
T7 sequence: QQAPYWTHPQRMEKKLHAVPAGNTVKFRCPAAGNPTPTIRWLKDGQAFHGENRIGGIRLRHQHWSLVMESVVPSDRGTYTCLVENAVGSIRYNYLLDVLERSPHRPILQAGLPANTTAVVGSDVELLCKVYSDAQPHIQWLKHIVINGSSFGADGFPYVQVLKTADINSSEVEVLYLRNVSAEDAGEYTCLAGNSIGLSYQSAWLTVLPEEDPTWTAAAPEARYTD

T8: soluble FGFR3c receptor protein (human, UniProt P22607 141-372)
T8 sequence: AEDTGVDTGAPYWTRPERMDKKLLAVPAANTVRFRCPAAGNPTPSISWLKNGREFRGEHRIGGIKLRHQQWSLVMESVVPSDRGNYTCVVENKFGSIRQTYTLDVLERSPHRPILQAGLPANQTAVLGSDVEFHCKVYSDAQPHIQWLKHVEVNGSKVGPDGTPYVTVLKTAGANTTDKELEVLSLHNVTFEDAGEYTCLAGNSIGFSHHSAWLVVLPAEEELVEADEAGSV


What was measured:
6His-Fc-FGFR4 = target: T1, 6His-Fc-FGFR4; assay: competition ELISA, blocks 6His-Fc-FGFR4 binding to coated FGF2
Protocol: (§1) ELISA plates were coated with 50 ug/ml Heparin Sulfate (HSPG) (Sigma Aldrich) and incubated overnight at room temperature. Plates were then washed extensively with PBS containing 0.05% v/v Tween20 (PBST). Plates were then blocked with 2.5% BSA in PBST for one hour and washed extensively as before. 40-60 μL of FGF1 or FGF2 was then added to each well at 40 μg/ml and allowed to bind at room temperature for 2 hours. Plates were then washed extensively with PBST as before. Stock solutions of each 6His-Fc-FGFR (FGFR1-4) were prepared at 500 ng/ml in 2% v/v BSA-PBST and each antibody was prepared as a 2×-dilution series in 2% v/v BSA-PBST. Antibodies dilution series and 6His-Fc-FGFR1-4 were diluted in a 1:1 fashion and immediately added to the relative wells of the plate and allowed to bind for 2 hours at room temperature. Plates were washed extensively as before with PBST and the remaining fraction of bound 6His-Fc-FGFR was detected using a polyclonal-anti-His-6-HRP conjugated antibody (Abcam) for one hour at room temperature. After extensive washing with PBST, 50 μl of Pierce Chemiluminescent substrate (Thermo Fisher Scientific, Rockford, USA) was added and plates were measured on an Envision plate reader (Perkin Elmer). Raw data was background corrected and plotted using Prism software. […]

[1] = target: T9, recombinant human FGFR2c Fc fusion (human, UniProt P21802 148-377); assay: solid phase ELISA on coated FGFR-Fc
T9 construct: also called FGFR2IIIc; not shown: Fc part of the FGFR-Fc fusion
Protocol: (§2) For the ELISA assay, the ability of each mAb to cross react with the […] FGF receptors was tested across a concentration curve in order to determine the relative binding across FGFR1-4. FGFR2IIIb was used as a negative control. Black 384-well Maxisorp plates were coated overnight with FGFR-Fc fusions in PBS to 1 ug/ml before washing and blocking with 75 ul/well Pierce Protein Free (PBS) Blocking Buffer for 1 hour at RT. Antibody dilutions were prepared freshly in 1% BSA- PBS+0.05% Tween20 and 25 ul of each antibody was added to wells in duplicate. Plates were incubated at RT for 2 hours, followed by addition of detection antibody at 50 ng/ml in 1% BSA PBS, 0.05% Tween20. ECL substrate (Pierce) was added and plates were read on the EnVision plate reader.

[2] = target: T2, recombinant human FGFR3c Fc fusion; assay: solid phase ELISA on coated FGFR-Fc
Protocol: as §2

[3] = target: T3, recombinant human FGFR4 Fc fusion; assay: solid phase ELISA on coated FGFR-Fc
Protocol: as §2

[4] = target: T4, recombinant human FGFR1c Fc fusion; assay: solid phase ELISA on coated FGFR-Fc
Protocol: as §2

FGFR1 on tumour cells = FGFR1 on tumour cells (UniProt P11362 22-822); assay: cell-based or functional assay
6His-Fc-FGFR1c = target: T5, 6His-Fc-FGFR1c; assay: competition ELISA, blocks 6His-Fc-FGFR1c binding to coated FGF2
Protocol: as §1

[5] = target: soluble FGFR2c receptor protein (human, UniProt P21802 148-377); assay: BLI Octet RED96, antibody on anti-hIgG Fc tip
Protocol: (§3) Briefly, the Pall ForteBio Octet RED96 Bio-Layer Interferometry system was used to determine the specificity of anti-FGFR antibodies for FGFR1c, FGFR2c, FGFR3c, and FGFR4. The antibodies and soluble receptor proteins were prepared in PBS at a concentration of 300 nM. First, the candidate antibodies were immobilized on the surface of anti-human IgG Fc biosensor tips for 120 seconds. After immobilization, the biosensors were dipped in PBS solution for 60 seconds (baseline step) to assess assay drift, and determine loading level of antibodies. The baseline step was followed by an association step of 300 seconds wherein the binding interaction between the immobilized antibodies and soluble receptors was measured. Following the association step, the biosensors were dipped into PBS buffer for 600 seconds to measure the dissociation of the bound receptor proteins from the immobilized antibodies. Each binding response was measured and reported real time on a sensorgram trace. For data analysis, a simple 1:1 binding model was used which measures the rate of complex formation of one immobilized antibody and one soluble receptor protein.

[6] = target: T6, soluble FGFR1c receptor protein; assay: BLI Octet RED96, antibody on anti-hIgG Fc tip
Protocol: as §3

[7] = target: T7, soluble FGFR4 receptor protein; assay: BLI Octet RED96, antibody on anti-hIgG Fc tip
Protocol: as §3

[8] = target: T8, soluble FGFR3c receptor protein; assay: BLI Octet RED96, antibody on anti-hIgG Fc tip
Protocol: as §3

Sequence of FGFR1 on tumour cells (P11362 22-822): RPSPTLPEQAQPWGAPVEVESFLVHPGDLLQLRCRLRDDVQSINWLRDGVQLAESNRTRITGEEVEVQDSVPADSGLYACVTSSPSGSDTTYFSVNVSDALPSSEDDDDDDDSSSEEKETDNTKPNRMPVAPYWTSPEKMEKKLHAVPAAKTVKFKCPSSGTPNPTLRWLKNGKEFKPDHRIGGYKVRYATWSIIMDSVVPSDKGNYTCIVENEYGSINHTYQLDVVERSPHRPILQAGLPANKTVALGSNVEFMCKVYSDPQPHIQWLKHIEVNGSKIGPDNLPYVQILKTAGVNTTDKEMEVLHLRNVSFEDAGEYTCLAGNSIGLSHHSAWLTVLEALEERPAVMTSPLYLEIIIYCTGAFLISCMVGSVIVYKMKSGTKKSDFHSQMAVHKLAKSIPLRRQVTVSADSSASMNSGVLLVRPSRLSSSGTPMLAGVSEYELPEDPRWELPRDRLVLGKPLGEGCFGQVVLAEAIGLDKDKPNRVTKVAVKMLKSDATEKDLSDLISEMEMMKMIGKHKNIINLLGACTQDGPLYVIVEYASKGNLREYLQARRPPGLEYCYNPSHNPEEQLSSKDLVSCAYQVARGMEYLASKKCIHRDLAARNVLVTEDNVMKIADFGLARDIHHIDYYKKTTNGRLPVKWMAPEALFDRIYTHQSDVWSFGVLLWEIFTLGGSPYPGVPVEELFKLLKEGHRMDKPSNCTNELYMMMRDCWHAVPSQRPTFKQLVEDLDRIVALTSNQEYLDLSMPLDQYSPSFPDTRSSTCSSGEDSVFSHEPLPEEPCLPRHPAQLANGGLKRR
Sequence of soluble FGFR2c receptor protein (P21802 148-377): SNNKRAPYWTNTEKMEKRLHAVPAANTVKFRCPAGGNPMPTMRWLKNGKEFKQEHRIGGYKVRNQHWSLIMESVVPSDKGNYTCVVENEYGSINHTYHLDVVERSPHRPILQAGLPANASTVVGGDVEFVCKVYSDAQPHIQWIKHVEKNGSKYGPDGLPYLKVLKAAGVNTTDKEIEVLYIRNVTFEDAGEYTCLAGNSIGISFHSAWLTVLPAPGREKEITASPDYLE
T9 sequence (P21802 148-377): as above

Row | IC50 (6His-Fc-FGFR4) [nM] | EC50 [1] [nM] | EC50 [2] [nM] | EC50 [3] [nM] | EC50 [4] [nM] | IC50 of pERK inhibition (AlphaScreen SureFire) in NCI-H1581 cells (FGFR1 on tumour cells) [nM] | IC50 (6His-Fc-FGFR1c) [nM] | Kd [5] | koff [5] | kon [5] | Kd [6] | kon [6] | Kd [7] | koff [7] | kon [7] | Kd [8] | koff [8] | kon [8] | Binder
1 | 25.7 | 0.0147 | 0.129 | 7.56 | 0.0112 | 4.12 | 3.35 | 10.3 nM and 11.8 nM and 11.5 nM | 0.00193 s⁻¹ and 0.00234 s⁻¹ and 0.00235 s⁻¹ | 183000 M⁻¹ s⁻¹ and 199000 M⁻¹ s⁻¹ and 205000 M⁻¹ s⁻¹ | 13.7 nM and 4.72 nM and 7.39 nM | 76500 M⁻¹ s⁻¹ and 48900 M⁻¹ s⁻¹ and 44600 M⁻¹ s⁻¹ | 11.2 nM and 7.35 nM and 7.88 nM | 0.00124 s⁻¹ and 0.00091 s⁻¹ and 0.00101 s⁻¹ | 98200 M⁻¹ s⁻¹ and 124000 M⁻¹ s⁻¹ and 128000 M⁻¹ s⁻¹ | 8.42 nM and 8.59 nM and 8.21 nM | 0.00108 s⁻¹ and 0.00105 s⁻¹ and 0.00102 s⁻¹ | 121000 M⁻¹ s⁻¹ and 123000 M⁻¹ s⁻¹ and 124000 M⁻¹ s⁻¹ | Ab15 (antibody, human IgG2, kappa, V domains shown, Format in each assay not spelled out; also called FGF#26) VH: EVQLLESGGGVVQPGRSLRLSCAASGFTFSSYAMHWVRQAPGKGLEWVAVISYDGSNKYYADSVKGRFTISRDNSKNTLSLQMNSLRVEDTAIYYCVRGAGRGYTYGPDGFDIWGQGTMVTVSS VL: DIVMTQTPLSLSVTPGQPASISCTSSRSLLHSDGKTYVYWYVQKSGQPPQLLIYELSNRFSGVPDRFSGSGSRTDFTLKISRVEAEDVGVYYCMQYIEAPLTFGGGTKVEIKR
2 | 23.8 |  |  |  |  | 3.04 | 4.52 |  |  |  |  |  |  |  |  |  |  |  | Ab23 (antibody, human IgG2, V domains shown, Format in the assays not spelled out) VH: EVQLLESGGGVVQPGRSLRLSCAASGFTFSSYAMHWVRQAPGKGLEWVAVISYDGSNKYYADSVKGRFTISRDNSKNTLSLQMNSLRVEDTAIYYCVRGAGRGLTYGPDGFDIWGQGTMVTVSS VL: DIVMTQTPLSLSVTPGQPASISCKSSRSLLHSDGKTYVYWYVQKSGQPPQLLIYELSNRFSGVPDRFSGSGSRTDFTLKISRVEAEDVGVYYCMQYIEAPLTFGGGTKVEIK
3 | 11.5 |  |  |  |  | 2.55 | 4.29 |  |  |  |  |  |  |  |  |  |  |  | Ab32 (antibody, human IgG2, kappa, V domains shown, format in the assays not spelled out) VH: EVQLLESGGGVVQPGRSLRLSCAASGFTFSSYAMHWVRQAPGKGLEWVAVISYDGSNKYYADSVKGRFTISRDNSKNTLSLQMNSLRVEDTAIYYCVRGAGLGFTYGPDGFDIWGQGTMVTVSS VL: DIVMTQTPLSLSVTPGQPASISCTSSRSLLHSDGKTYVYWYVQKSGQPPQLLIYELSNRFSGVPDRFSGSGSRTDFTLKISRVEAEDVGVYYCMQYVEAPLTFGGGTKVEIKR
